{"source": "patent US20090068174A1", "about": "“THERAPEUTIC ALKALINE PROTEASE COMPOSITIONS AND USE IN FACILITATING THE TRANSPORT OF AGENTS ACROSS THE GASTROINTESTINAL MUCOSAL LINING” (Kansas University Medical Center Research Institute, Inc., priority 2007, published 2009)", "molecules": {"B1": {"name": "Alkaline Protease: Aspergillus oryzae alkaline protease (oryzin), SEQ ID NO: 2, purified from the protease powder of Example 1 (protein, listed as Aspergillus oryzae)", "chain": "MQSIKRTLLLLGAILPAVLGAPVQETRRAAEKLPGKYIVTFKPGIDEAKIQEHTTWATNIHQRSLERRGATGGDLPVGIERNYKINKFAAYAGSFDDATIEEIRKNEDVAYVEEDQIYYLDGLTTQKSAPWGLGSISHKGQQSTDYIYDTSAGEGTYAYVVDSGVNVDHEEFEGRASKAYNAAGGQHVDSIGHGTHVSGTIAGKTYGIAKKASILSVKVFQGESSSTSVILDGFNWAANDIVSKKRTSKAAINMSLGGGYSKAFNDAVENAFEQGVLSVVAAGNENSDAGQTSPASAPDAITVAAIQKSNNRASFSNFGKVVDVFAPGQDILSAWIGSSSATNTISGTSMATPHIVGLSLYLAALENLDGPAAVTKRIKELATKDWKDVKGSPNLLAYNGNA"}}, "key": {"TNF-α [1]": {"molecular_target": "T1, TNF-α (Mus musculus, UniProt P06804)", "T1 sequence (P06804 80-235 limits assumed)": "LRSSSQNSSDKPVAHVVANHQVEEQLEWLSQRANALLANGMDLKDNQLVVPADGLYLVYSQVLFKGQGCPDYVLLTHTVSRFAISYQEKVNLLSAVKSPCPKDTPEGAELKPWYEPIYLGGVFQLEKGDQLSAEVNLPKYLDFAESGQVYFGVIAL", "assay": "Protease-treated TNF-α injected i.p. into mice, activated caspase-3 in intestine", "format": "in vivo", "settings": "TNF-α treated with protease for 2 h, intestine 1 h later", "description": "TNF-α was first treated either with PBS, AP or D for 2 h, the reaction mixtures were inactivated by the addition of FBS, and the cytokine-protease mixtures were injected i.p. into mice. (A) One hour later the mice were euthanized, samples of their intestines were collected and fixed, and tissue sections were analyzed by immunohistology for the expression of activated caspase-3. These are the results are shown in which data are expressed in two forms: (B) the frequency distributions of sections expressing different levels of activated caspase-3; and (C) the percentages of tissue sections in which 10% or more of the villi stained for activated caspase-3.\nA series of experiments was performed in which the activation of caspase-3 within the intestine was measured. […] One hour later the mice were euthanized, samples of their intestines were collected and fixed, and tissue sections were analyzed by immunohistology for the expression of activated caspase-3 (FIG. 21-22). […]\nMice were injected i.p. with 5 ng of recombinant mouse TNF-α or protease-treated TNF-α, and 2 cm segments of their duodenums were collected 1 h later. […] The sections were first treated with rabbit antibody to activated (cleaved) mouse caspase-3, and bound antibody was detected using a Histostain-SP kit. […] At least 48 sections were analyzed in this fashion from each mouse."}, "human IFN-γ": {"molecular_target": "T2, human IFN-γ (Homo sapiens, UniProt P01579)", "T2 sequence (P01579 24-166)": "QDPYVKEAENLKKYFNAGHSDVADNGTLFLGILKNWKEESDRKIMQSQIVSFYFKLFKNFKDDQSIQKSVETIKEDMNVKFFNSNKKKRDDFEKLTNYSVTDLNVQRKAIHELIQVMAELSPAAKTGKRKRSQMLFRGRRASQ", "assay": "Fc receptor-inducing activity of protease-treated human IFN-γ on U937 cells", "format": "cell-based", "set-up": "key: +: Indicates that the protease inactivated the cytokine; ^a: Cleavage of the cytokine occurred without inactivation", "settings": "Table 7 summary", "description": "(§1) Effects of the purified A. oryzae proteases on the Fc receptor-inducing activity of human IFN-γ. Samples of the cytokine were first treated with the indicated Pseudomonas or fungal proteases: Elastase (∘); Preparation ([…]); Alkaline Protease (□); Deuterolysin (▪); and 26 kDa Protease (Δ). The treated samples were added to human promyelocytic U937 cells to induce expression of Fc receptors for IgG, which was detected by flow cytometry. The results are plotted either as a decrease in of mean channel fluorescence (A) or a decrease in % positive cells (B) plotted against increasing protease amounts.\nas §1, with “Samples” for “Effects of the purified A. oryzae proteases on the Fc receptor-inducing activity of human IFN-γ. Samples”"}, "TNF-α [2]": {"molecular_target": "T1, TNF-α", "assay": "Pretreatment of mice with protease before TNF-α challenge, activated caspase-3 in intestine", "format": "in vivo", "description": "In this figure, various amounts of deutrolysin and alkaline protease were administered to mice 15 min prior to challenge with TNF-α. Intestinal tissues were again recovered 1 h later and the expression of activated caspase-3 was measured. […] (B) The ability of AP to provide protection against the apoptotic effects of TNF-α in vivo was limited in its duration. Thus, pretreatment of the mice for up to 30 min prior to TNF-α challenge prevented caspase-3 activation, whereas delaying cytokine challenge beyond 30 min diminished the protective effect of the protease.\nA modification of this experiment was then performed by injecting various amounts of the proteases for 15 min prior to challenge with TNF-α (FIG. 22). Intestinal tissues were again recovered 1 h later and the expression of activated caspase-3 was measured. […]\nMice were injected i.p. with 5 ng of recombinant mouse TNF-α or protease-treated TNF-α, and 2 cm segments of their duodenums were collected 1 h later. […] The sections were first treated with rabbit antibody to activated (cleaved) mouse caspase-3, and bound antibody was detected using a Histostain-SP kit. For each mouse, tissues were scored by enumerating the number of sections in which less than 10%, 10-50%, or >50% of the intestinal villi expressed activated caspase-3. At least 48 sections were analyzed in this fashion from each mouse."}, "mouse recombinant IFN-γ": {"molecular_target": "T3, mouse recombinant IFN-γ (Mus musculus, UniProt P01580)", "T3 sequence (P01580 23-155)": "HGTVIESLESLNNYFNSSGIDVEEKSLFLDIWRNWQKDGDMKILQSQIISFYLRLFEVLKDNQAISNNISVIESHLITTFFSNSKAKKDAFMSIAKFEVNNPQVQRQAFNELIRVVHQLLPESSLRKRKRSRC", "assay": "Cleavage of mouse IFN-γ (Western blotting)", "format": "biochemical", "settings": "100 ng cytokine, 37° C. overnight, Western blot", "description": "Degradation of mouse recombinant TNF-α: (A) or IFN-γ (B) following treatment with: the protease powder prepared according to Example 1 (preparation), purified alkaline protease (AP); Pseudomonas elastase (E); and buffered-treated control (C). The cytokines (100 ng each) were incubated at 37° C. overnight with the indicated quantities (ng) of enzymes, and then analyzed by Western blotting for evidence of degradation. A scan of AP-treated mouse TNF-α (left-hand Western blot) showing the decreasing density of the top band as a function of alkaline protease concentration (C).\nBecause the anti-TNF-α used here was specific for an epitope located in the carboxyl terminus of the cytokine, the pattern of cleavage is most consistent with attack at the amino terminus of TNF-α (e.g., there is a loss of molecular mass without a loss of the epitope recognized by the antibody)."}}}
{"molecule": "B1", "values": [{"measurement": "Ability of protease-treated TNF-α to activate caspase-3 in intestinal epithelial cells", "setting": "TNF-α [1]", "value": "destroyed the ability of the cytokine to activate caspase-3"}, {"measurement": "Inactivation of Human IFN-γ", "setting": "human IFN-γ", "value": "+"}, {"measurement": "Pretreatment interval prior to TNF-α challenge that prevented caspase-3 activation", "setting": "TNF-α [2]", "value": "up to 30 min"}, {"measurement": "Effect of protease pretreatment on action of TNF-α in vivo (activated caspase-3)", "setting": "TNF-α [2]; protease 1-10 μg injected 15 min prior to TNF-α challenge, tissues 1 h later", "value": "blocked the action of TNF-α in vivo"}, {"measurement": "Cleavage of mouse IFN-γ", "setting": "mouse recombinant IFN-γ", "value": "partial degrades mouse IFN-γ"}, {"measurement": "Cleavage of mouse IFN-γ", "setting": "mouse recombinant IFN-γ; listed as alkaline protease (AP)", "value": "evidenced the same substrate specificity"}]}
